In paper PMC4894380:

Molecular target: T1, MqsA (Escherichia coli (strain of the protein not stated)) (UniProt Q46864)
T1 sequence: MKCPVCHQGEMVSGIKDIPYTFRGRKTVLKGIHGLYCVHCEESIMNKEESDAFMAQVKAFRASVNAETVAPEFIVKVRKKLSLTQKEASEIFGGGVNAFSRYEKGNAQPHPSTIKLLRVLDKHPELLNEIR
Test: EMSA
Conditions: 10 mM Tris-HCl pH 7.5, 50 mM KCl, 1 mM DTT, 1 ug poly(dI.dC), 30-50 fmol labeled probe, ambient temperature, 1 h; 6% gel, 0.5x TBE

## CGTGTATGTGGTGTGCGTTTTTCCATAACCCCCGCCTCCCTGTTACTTTAGTTATAACCTAAAAGGTTAATTACAGCAATGAAAAAGCACCTAAAAGGTTAGTTAGATGTACGGAGATAGTGACCACACAAAACGTATTCTTTAAGGAAAGTGATTGACCATATAAGAAAGTGGCGCATTAGTAGCGCCAGTTTGAAGCAGGAATTTATAAGGGAAGCTGGAGTCAGGCATCAC (double strand) [p-mqsRA (234 bp)]
  binding: binds
